Measurements taken from patent US20260234223A1.

Molecular target: SARS-CoV-2 Delta Spike antigen (SARS-CoV-2 Delta)

Row | Substance | EC50
1 | Anti-S1 mAb ImdevimAb (antibody) | 0.01 nM
2 | Anti-S1 antibody DZIF-10c | 6.9 nM
